Measured values: patent publication US20110098440A1 (Novo Nordisk, published 2011)

B1: A8H, A22K(N^ε-Octadecandioyl-γGlu-[2-(2-{2-[2-(2-aminoethoxy)ethoxy]acetylamino}ethoxy)ethoxy]-acetyl), B29R, desB30 human insulin (ligand)
chain 1: GIVEQCCHSICSLYQLENYCNK
chain 2: FVNQHLCGSHLVEALYLVCGERGFFYTPR
modifications: A22K(N^ε-Octadecandioyl-γGlu-[2-(2-{2-[2-(2-aminoethoxy)ethoxy]acetylamino}ethoxy)ethoxy]-acetyl)
notes: also called C18-gGlu-OEG-OEG, A8H, A22K, B29R
B2: A14E, A22K(N^ε-Octadecandioyl-γGlu-(3-(2-{2-[2-(2-aminoethoxy)ethoxy]ethoxy}ethoxy)propionyl)-γGlu), B25H, B29R, desB30 human insulin (ligand)
chain 1: GIVEQCCTSICSLEQLENYCNK
chain 2: FVNQHLCGSHLVEALYLVCGERGFHYTPR
modifications: A22K(N^ε-Octadecandioyl-γGlu-(3-(2-{2-[2-(2-aminoethoxy)ethoxy]ethoxy}ethoxy)propionyl)-γGlu)
notes: also called C18-gGlu-PEG3-gGlu, A14E, A22K, B25H, B29R
B3: A18L, A22K(N^ε-Octadecandioyl-γGlu-[2-(2-{2-[2-(2-aminoethoxy)ethoxy]acetylamino}ethoxy)ethoxy]-acetyl), B29R, desB30 human insulin (ligand)
chain 1: GIVEQCCTSICSLYQLELYCNK
chain 2: FVNQHLCGSHLVEALYLVCGERGFFYTPR
modifications: A22K(N^ε-Octadecandioyl-γGlu-[2-(2-{2-[2-(2-aminoethoxy)ethoxy]acetylamino}ethoxy)ethoxy]-acetyl)
notes: also called C18-gGlu-OEG-OEG, A18L, A22K, B29R
B4: A14E, A22K(N^ε-Eicosanedioyl-γGlu-γGlu-(3-[2-(2-{2-[2-(2-{2-[2-(2-aminoethoxy)ethoxy]ethoxy}ethoxy)ethoxy]ethoxy}ethoxy)ethoxy]propionyl)), B25H, B29R, desB30 … (ligand)
chain 1: GIVEQCCTSICSLEQLENYCNK
chain 2: FVNQHLCGSHLVEALYLVCGERGFHYTPR
modifications: A22K(N^ε-Eicosanedioyl-γGlu-γGlu-(3-[2-(2-{2-[2-(2-{2-[2-(2-aminoethoxy)ethoxy]ethoxy}ethoxy)ethoxy]ethoxy}ethoxy)ethoxy]propionyl))
notes: also called C20-gGlu-gGlu-PEG7, A14E, A22K, B25H, B29R
B5: A14E, A22K(N^ε-Eicosanedioyl-γGlu-(3-(2-{2-[2-(2-aminoethoxy)ethoxy]ethoxy}ethoxy)propionyl)), B25H, B29R, desB30 human insulin (ligand)
chain 1: GIVEQCCTSICSLEQLENYCNK
chain 2: FVNQHLCGSHLVEALYLVCGERGFHYTPR
modifications: A22K(N^ε-Eicosanedioyl-γGlu-(3-(2-{2-[2-(2-aminoethoxy)ethoxy]ethoxy}ethoxy)propionyl))
notes: also called C20-gGlu-PEG3, A14E, A22K, B25H, B29R
B6: A14E, A22K(N^ε-[2-(2-[2-(2-[2-(Octadecandioyl-γGlu)amino]ethoxy)ethoxy]acetylamino)ethoxy]ethoxy)-acetyl]), B25H, B29R, desB30 human insulin (ligand)
chain 1: GIVEQCCTSICSLEQLENYCNK
chain 2: FVNQHLCGSHLVEALYLVCGERGFHYTPR
modifications: A22K(N^ε-[2-(2-[2-(2-[2-(Octadecandioyl-γGlu)amino]ethoxy)ethoxy]acetylamino)ethoxy]ethoxy)-acetyl])
notes: also called C18-gGlu-OEG-OEG, A14E, A22K, B25H, B29R
B7: A14E, A22K(N^ε-Octadecandioyl-γGlu-(3-[2-(2-{2-[2-(2-{2-[2-(2-aminoethoxy)ethoxy]ethoxy}ethoxy)ethoxy]ethoxy}ethoxy)ethoxy]propionyl)), B25H, B29R, desB30 … (ligand)
chain 1: GIVEQCCTSICSLEQLENYCNK
chain 2: FVNQHLCGSHLVEALYLVCGERGFHYTPR
modifications: A22K(N^ε-Octadecandioyl-γGlu-(3-[2-(2-{2-[2-(2-{2-[2-(2-aminoethoxy)ethoxy]ethoxy}ethoxy)ethoxy]ethoxy}ethoxy)ethoxy]propionyl))
notes: also called C18-gGlu-PEG7, A14E, A22K, B25H, B29R

Columns and labels:
[1] = target: T1, purified recombinant human insulin receptor (IR-A) (human, UniProt P06213-2 28-1370, limits assumed); experiment: SPA competition, displacement of A14Tyr[125I]-human insulin from human insulin receptor, 0% HSA; relative to desB30 human insulin = 100%
T1 construct: The receptor was captured on SPA beads through the F12 antibody
Experimental: (§1) The affinity of the acylated insulin analogues of this invention for the human insulin receptor is determined by a SPA assay (Scintillation Proximity Assay) microtiterplate antibody capture assay. […] A total of 100 μl reagent mix is then added to each well in the Packard Optiplate and a dilution series of the insulin derivative is made in the Optiplate from appropriate samples. The samples are then incubated for 16 hours while gently shaken. The phases are the then separated by centrifugation for 1 min and the plates counted in a Topcounter. The binding data were fitted using the nonlinear regression algorithm in the GraphPad Prism 2.01 (GraphPad Software, San Diego, Calif.).

[2] = target: T1, purified recombinant human insulin …; experiment: SPA competition, displacement of A14Tyr[125I]-human insulin from human insulin receptor, 4.5% HSA; relative to desB30 human insulin = 100%
Experimental: as §1

Binder | IR-A affinity (0% HSA) [1] [%] | IR-A affinity (4.5% HSA) [2] [%]
B1 | 417 | 63
B2 | 23 | 
B3 | 339 | 23.6
B4 | 25 | 
B5 |  | 5.2
B6 | 22.4 | 5
B7 | 28 | 
